Columns and labels:
human IL-13Rα1 (human) [1] = molecular target: human IL-13Rα1 (human) (UniProt P78552); experiment: SPR on immobilized ligands with receptors as flow analytes using MCK, top trace marked 1000 nM
human IL-13Rα2 (human) [2] = molecular target: human IL-13Rα2 (human) (UniProt Q14627); experiment: SPR on immobilized ligands with receptors as flow analytes using MCK, top trace marked 250 nM
human IL-13Rα2 (human) [3] = molecular target: human IL-13Rα2 (human) (UniProt Q14627); experiment: SPR, construct captured on anti-human IgG (Fc) antibody on a CM5 chip, human receptor as analyte
human IL-13Rα1 (human) [4] = molecular target: human IL-13Rα1 (human) (UniProt P78552); experiment: as above
[5] = molecular target: T1, human IL-2R beta (CD122) (human) (UniProt P14784); experiment: BLI (Octet)
T1 sequence (looked up): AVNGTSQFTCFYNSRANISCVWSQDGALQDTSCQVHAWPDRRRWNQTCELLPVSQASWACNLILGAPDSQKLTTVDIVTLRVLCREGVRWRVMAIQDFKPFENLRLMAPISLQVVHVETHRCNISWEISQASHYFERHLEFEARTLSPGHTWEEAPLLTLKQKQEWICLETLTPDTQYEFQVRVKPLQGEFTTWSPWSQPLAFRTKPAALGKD

Chain of human IL-13Rα2 (human) (Q14627 27-343 limits assumed): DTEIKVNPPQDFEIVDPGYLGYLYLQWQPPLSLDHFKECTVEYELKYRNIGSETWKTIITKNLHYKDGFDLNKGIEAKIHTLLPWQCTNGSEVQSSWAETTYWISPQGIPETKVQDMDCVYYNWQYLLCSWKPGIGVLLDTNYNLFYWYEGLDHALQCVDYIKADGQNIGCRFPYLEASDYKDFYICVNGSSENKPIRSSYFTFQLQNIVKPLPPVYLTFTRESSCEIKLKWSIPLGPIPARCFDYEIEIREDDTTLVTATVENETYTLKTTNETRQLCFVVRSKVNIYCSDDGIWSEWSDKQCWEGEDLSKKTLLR
Chain of human IL-13Rα1 (human) (P78552 22-343 limits assumed): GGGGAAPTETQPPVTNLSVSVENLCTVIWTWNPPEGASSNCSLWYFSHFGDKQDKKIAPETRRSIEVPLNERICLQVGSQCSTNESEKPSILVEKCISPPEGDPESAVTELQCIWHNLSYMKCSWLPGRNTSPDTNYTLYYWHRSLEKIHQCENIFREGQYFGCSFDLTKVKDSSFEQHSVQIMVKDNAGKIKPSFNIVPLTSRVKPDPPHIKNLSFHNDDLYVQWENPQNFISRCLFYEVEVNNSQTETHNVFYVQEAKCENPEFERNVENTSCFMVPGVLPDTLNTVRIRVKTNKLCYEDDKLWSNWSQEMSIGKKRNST

Substance | Kd (human IL-13Rα1 (human) [1]) [nM] | Kd (human IL-13Rα2 (human) [2]) [nM] | Kd (human IL-13Rα2 (human) [3]) [nM] | Kd (human IL-13Rα1 (human) [4]) [nM] | Kd [5] [nM]
Fc-IL13 (wild-type IL-13 with Fc tag, comparator; format not stated) (Fc fusion) | 202 | 0.69 | 0.6 | 237 | –
MDNA11 (MDNA109FEAA-Albumin) | – | – | – | – | 11
VivoTag800-MDNA11 | – | – | – | – | 7
